The record followed here is patent US20240199757A1 (UNIVERSITY OF CHICAGO, published 2024).

Like-named read-outs stand apart in the source and are kept apart here.

Assay [1] addresses T1, human NT5E expressed on MDA-MB-231 cells (human, UniProt P21589 27-549).
T1 construct: whole, on cells; also called NT5E-expressing MDA-MB-231 cells; CD73
T1 sequence (looked up): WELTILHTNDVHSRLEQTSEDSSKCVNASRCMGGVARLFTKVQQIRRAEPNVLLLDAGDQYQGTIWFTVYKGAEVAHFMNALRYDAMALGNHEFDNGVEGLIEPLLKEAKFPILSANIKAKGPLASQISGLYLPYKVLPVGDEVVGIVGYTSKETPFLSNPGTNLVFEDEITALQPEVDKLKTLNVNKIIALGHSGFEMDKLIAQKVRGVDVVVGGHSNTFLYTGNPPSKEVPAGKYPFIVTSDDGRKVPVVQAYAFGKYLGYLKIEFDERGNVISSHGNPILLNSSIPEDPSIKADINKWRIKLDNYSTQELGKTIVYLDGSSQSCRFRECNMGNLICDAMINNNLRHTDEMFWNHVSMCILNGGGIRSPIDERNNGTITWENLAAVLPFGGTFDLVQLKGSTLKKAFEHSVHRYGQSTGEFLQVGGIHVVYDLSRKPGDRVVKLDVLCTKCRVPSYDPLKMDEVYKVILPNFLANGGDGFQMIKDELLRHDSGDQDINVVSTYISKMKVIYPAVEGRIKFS
In words: flow cytometry on MDA-MB-231 cells, 1 mM ATP. The method, then:
(§1) Flow cytometry analysis of antibodies binding to human NT5E expressed on MDA-MB-231 cells in ATP-free condition (black) or in 1 mM ATP (red). Top panel: (left) 1780 Fab and (right) 1780 IgG titrations. […] Binding was measured at the indicated range of antibody concentrations and is expressed as mean±st. dev of median fluorescence intensity (MFI) of 1-2 replicates. Data were analyzed using OriginLab, and EC₅₀ values are shown next to the fitted curves.
(§2) Human MDA-MB-231 cells and murine 4T1 cells were grown to 90% confluency, detached with 5 mM EDTA for 15 min at 37° C. and then resuspended in 37° C. lx PBS (#10010031, Gibco) supplemented with 1% FBS and 1OpM ZnCl2. Separate working buffers (WB) of PBS and 1% FBS with or without fixed nucleotide concentrations were used throughout all washing steps to maintain constant condition. In 96-well plates (#3799, Costar), 0.2×10⁶ cells were added per well. The plates were spun at 500×g for 5 min and the supernatant was removed. Anti-NT5E antibodies were diluted to the desired concentration in 100 μL WB, added to the cells and the plates were incubated for 20 min at 37° C. Plates were spun and cells were washed twice with WB then spun a second time. Cells were stained with 100 μL of secondary antibody (Alexa Fluor 647 AffiniPure Goat Anti-Human IgG, F(ab′)2 fragment specific, #109-605-006, Jackson, 1:200) dilution and plates were incubated for 20 min at 37° C. Cells were washed twice with WB then fixed on ice with WB supplemented with 0.5% PFA. Fixing solution was removed by centrifugation and cells were resuspended in cold 1× PBS. Samples were analyzed by flow cytometry using CytoFLEX (Beckman Coulter) and mean fluorescence intensity (MFI) data was extracted using FlowJo software. Resulting binding data was plotted using OriginLab.

Assay [2] addresses T2, murine NT5E expressed on 4T1 cells (murine, UniProt Q61503 29-551).
T2 construct: whole, on cells; also called mouse NT5E-expressing 4T1 cells
T2 sequence (looked up): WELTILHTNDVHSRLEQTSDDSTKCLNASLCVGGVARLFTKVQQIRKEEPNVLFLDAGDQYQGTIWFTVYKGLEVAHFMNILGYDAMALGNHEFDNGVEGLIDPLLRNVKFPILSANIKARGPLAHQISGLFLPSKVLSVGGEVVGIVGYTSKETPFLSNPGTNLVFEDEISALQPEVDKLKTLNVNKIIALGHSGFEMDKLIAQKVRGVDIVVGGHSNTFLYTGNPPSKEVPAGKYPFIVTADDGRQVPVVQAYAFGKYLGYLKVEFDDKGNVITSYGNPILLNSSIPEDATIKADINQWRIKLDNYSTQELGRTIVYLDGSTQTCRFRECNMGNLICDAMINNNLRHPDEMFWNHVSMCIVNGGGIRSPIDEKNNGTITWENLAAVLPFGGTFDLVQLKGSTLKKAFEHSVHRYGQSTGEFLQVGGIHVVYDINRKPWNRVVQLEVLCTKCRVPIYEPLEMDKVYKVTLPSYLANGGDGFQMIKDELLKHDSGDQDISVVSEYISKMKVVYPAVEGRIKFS
In words: flow cytometry on 4T1 cells, single Fab concentration, -ATP. Here is the method: as §2
For orientation: In flow cytometry, cells or beads pass a laser one at a time.

For assay [3], the target named is T1, human NT5E expressed on MDA-MB-231 cells. In words: flow cytometry on MDA-MB-231 cells, 1 mM ATP. Here is the method: as §1, §2
The source holds these as a separate data set.

B1: 1780 Fab (Fab, V domains shown)
VH: EVQLVESGGGLVQPGGSLRLSCAASGFNFYSYSIHWVRQAPGKGLEWVASISSSSGYTYYADSVKGRFTISADTSKNTAYLQMNSLRAEDTAVYYCARYSWWGWHMEGWWGYMNAFDYWGQGTLVTV
VL: DIQMTQSPSSLSASVGDRVTITCRASQSVSSAVAWYQQKPGKAPKLLIYSASSLYSGVPSRFSGSRSGTDFTLTISSLQPEDFATYYCQQAHPKPITFGQGTKVEIKR
For orientation: EC50 means the concentration that produces a half-maximal response. For B1, the EC50 in assay [1] is 40.8 nM; in assay [3] it was 37 nM. Also, the binding result in assay [2] was “no binding (tested: 200 nM)”.
